By Kd is commonly meant the constant that tells how readily two partners part at equilibrium.

Test [1] deals with GST-EPLIN-α (recombinant full-length EPLIN-α GST-fusion protein) (UniProt Q9UHB6). As to the kind of experiment: pull-down.
Another test addresses F-actin (UniProt P68135). Nature of the test: co-sedimentation.

his-EPLIN-α, sequence (Q9UHB6 161-759): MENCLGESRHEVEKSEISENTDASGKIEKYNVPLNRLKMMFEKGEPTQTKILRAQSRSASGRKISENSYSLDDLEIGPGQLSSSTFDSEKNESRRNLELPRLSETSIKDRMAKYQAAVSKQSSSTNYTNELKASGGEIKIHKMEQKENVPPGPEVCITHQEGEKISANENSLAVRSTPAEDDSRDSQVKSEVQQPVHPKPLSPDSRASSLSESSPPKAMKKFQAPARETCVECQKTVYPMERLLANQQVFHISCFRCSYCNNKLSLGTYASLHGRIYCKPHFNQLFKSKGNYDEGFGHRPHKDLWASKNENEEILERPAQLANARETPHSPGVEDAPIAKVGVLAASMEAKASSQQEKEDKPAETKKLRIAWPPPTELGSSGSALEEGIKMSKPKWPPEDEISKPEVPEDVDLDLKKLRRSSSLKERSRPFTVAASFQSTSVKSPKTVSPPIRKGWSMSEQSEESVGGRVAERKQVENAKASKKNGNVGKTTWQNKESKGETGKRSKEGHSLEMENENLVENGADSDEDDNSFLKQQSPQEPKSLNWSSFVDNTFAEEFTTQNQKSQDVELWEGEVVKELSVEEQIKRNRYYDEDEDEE
GST-EPLIN-α (recombinant full-length EPLIN-α GST-fusion protein), sequence (Q9UHB6 161-759): as above

On to “G-actin (from UniProt P68135 1-377) (natural protein)”, for which the percent of actin monomers pelleted in test [1] was 10%.

In the test with F-actin, “his-EPLIN-α (from UniProt Q9UHB6-2 1-599) (natural protein)” gave a Kd of 100 nM and a stoichiometry N (actin molecules per his-EPLIN-α) of 2.
